What was measured:
Assay in all cases: SPR (Biacore); KD of H240-Kn033/H240-Hl033/L73-k0 divided by KD of the variant
FcgRIIb = target: T1, FcgRIIb (human, UniProt P31994 43-217)
T1 construct: extracellular domain; also called FcγRIIb; 2b; not shown: His tag attached to the C terminus
T1 sequence (looked up): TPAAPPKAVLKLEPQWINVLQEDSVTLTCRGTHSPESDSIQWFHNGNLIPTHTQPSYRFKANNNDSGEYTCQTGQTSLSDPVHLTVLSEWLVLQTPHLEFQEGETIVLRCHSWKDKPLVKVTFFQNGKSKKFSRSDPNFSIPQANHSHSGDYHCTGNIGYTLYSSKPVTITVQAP
Method: (§1) Binding of the produced variants to FcgRIa, FcgRIIaR, FcgRIIaH, FcgRIIb, FcgRIIIaF, and FcgRIIIaV was measured according to the method of Reference Example 8.
(§2) Analysis of interaction between objective antibody and the FcγR was carried out using Biacore T100 (GE Healthcare), Biacore T200, Biacore A100, and Biacore 4000. HBS-EP+ (GE Healthcare) was used as the running buffer, and the measurement temperature was set to 25° C. Chips produced by immobilizing the antigen peptide by the amine coupling method to a Series S sensor Chip CM5 (GE Healthcare), chips produced by allowing preliminarily biotinylated antigen peptides to interact with and immobilize onto a Series S Sensor Chip SA (certified) (GE Healthcare), chips produced by immobilizing Protein L (ACTIGEN, BioVision) to Series S Sencor Chip CM5 (GE Healthcare), or chips produced by immobilizing Protein A/G (Thermo Scientific) to Series S Sencor Chip CM5 (GE Healthcare) were used. Antibodies of interest were captured onto these chips, and allowed to interact to each FcγR diluted with running buffer. To regenerate and repeatedly use the chip, the antibodies captured onto the chip were washed off by reacting 10 mM glycine-HCl, pH 1.5.

FcgRIIIaV = target: T2, FcgRIIIaV (human, UniProt P08637 17-208)
T2 construct: extracellular domain; also called FcγRIIIa V; 3aV; not shown: His tag attached to the C terminus
T2 sequence (P08637 17-208 F176V limits assumed): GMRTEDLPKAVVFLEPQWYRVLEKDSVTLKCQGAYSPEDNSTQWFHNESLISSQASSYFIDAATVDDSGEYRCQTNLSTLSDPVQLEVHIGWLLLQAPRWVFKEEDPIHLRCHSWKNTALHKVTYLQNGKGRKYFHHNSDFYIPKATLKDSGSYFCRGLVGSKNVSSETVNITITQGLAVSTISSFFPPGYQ
Method: as §1, §2

FcgRIIIaF = target: T3, FcgRIIIaF (human, UniProt P08637 17-208)
T3 construct: extracellular domain; also called FcγRIIIa F; 3aF; not shown: His tag attached to the C terminus
T3 sequence (P08637 17-208): as the sequence (P08637 17-208 F176V limits assumed) above, with V160F counted along it
Method: as §1, §2

FcgRIIaR = target: T4, FcgRIIaR (human, UniProt P12318 34-217)
T4 construct: extracellular domain; also called FcγRIIa R; FcgRIIa type R; not shown: His tag attached to the C terminus
T4 sequence (looked up): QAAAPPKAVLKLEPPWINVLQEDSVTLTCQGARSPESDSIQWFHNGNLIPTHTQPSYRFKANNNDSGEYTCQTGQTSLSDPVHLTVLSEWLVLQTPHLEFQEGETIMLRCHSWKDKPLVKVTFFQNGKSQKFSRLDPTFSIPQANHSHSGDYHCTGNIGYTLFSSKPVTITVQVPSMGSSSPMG
Method: as §1, §2

FcgRIIaH = target: T5, FcgRIIaH (human, UniProt P12318 34-217)
T5 construct: extracellular domain; also called FcγRIIa H; FcgRIIa type H; not shown: His tag attached to the C terminus
T5 sequence (looked up): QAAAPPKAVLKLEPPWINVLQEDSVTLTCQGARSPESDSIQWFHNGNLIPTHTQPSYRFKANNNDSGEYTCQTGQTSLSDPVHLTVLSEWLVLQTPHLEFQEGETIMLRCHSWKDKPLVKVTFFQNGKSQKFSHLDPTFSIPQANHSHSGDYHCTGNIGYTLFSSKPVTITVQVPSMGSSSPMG
Method: as §1, §2

B1: H240-Kn033/H240-Hl033/L73-k0 (antibody, human IgG1, kappa)
heavy 1: not shown
heavy 2: not shown
light: DIQMTQSPSSLSASVGDRVTITCRASQDIHKYIAWYQQKPGQAPRLLIQYTSTLQPGVPSRFSGSGSGTDYTFTISSLQPEDIATYYCLQYEQLRTFGGGTKVEIKRTVAAPSVFIFPPSDEQLKSGTASVVCLLNNFYPREAKVQWKVDNALQSGNSQESVTEQDSKDSTYSLSSTLTLSKADYEKHKVYACEVTHQGLSSPVTKSFNRGEC
notes: Anti-epiregulin IgG1 with only knobs-into-holes alterations
fold 2b (FcgRIIb): 1 fold | fold 3aV (FcgRIIIaV): 1 fold | fold 3aF (FcgRIIIaF): 1 fold | fold 2aR (FcgRIIaR): 1 fold | fold 2aH (FcgRIIaH): 1 fold

B2: H240-afucosyl_G1d/L73-k0 (antibody, human IgG1, kappa)
heavy: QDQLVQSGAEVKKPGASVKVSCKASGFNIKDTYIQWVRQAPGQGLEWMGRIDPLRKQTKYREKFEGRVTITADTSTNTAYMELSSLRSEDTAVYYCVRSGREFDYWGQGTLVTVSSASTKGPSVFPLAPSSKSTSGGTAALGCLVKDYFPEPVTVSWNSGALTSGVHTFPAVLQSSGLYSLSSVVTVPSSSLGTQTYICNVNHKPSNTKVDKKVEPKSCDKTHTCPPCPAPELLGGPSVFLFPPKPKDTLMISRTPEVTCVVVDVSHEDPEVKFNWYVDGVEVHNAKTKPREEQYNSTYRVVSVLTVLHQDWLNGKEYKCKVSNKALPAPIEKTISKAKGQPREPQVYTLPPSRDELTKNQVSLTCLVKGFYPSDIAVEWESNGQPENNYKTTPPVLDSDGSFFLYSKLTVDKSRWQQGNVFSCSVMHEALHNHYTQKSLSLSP
light: DIQMTQSPSSLSASVGDRVTITCRASQDIHKYIAWYQQKPGQAPRLLIQYTSTLQPGVPSRFSGSGSGTDYTFTISSLQPEDIATYYCLQYEQLRTFGGGTKVEIKRTVAAPSVFIFPPSDEQLKSGTASVVCLLNNFYPREAKVQWKVDNALQSGNSQESVTEQDSKDSTYSLSSTLTLSKADYEKHKVYACEVTHQGLSSPVTKSFNRGEC
modifications: afucosylated: fucose removed from the sugar chain of H240-G1d
notes: also called afucosylated antibody
fold 2b (FcgRIIb): 1.3 fold | fold 3aV (FcgRIIIaV): 7 fold | fold 3aF (FcgRIIIaF): 3.7 fold | fold 2aR (FcgRIIaR): 1.5 fold | fold 2aH (FcgRIIaH): 0.7 fold

From patent US20150344570A1 (published 2015)
